The text below walks through data of US8828941 (KUNOVUS, dated 2014).

The data set concerns the molecule itself. Briefly: non-reducing PAGE of protein from CHO cells. The source says:
Concentrated supernatants from one well of a 6-well plate were separated using polyaclylamide gel electrophoresis (PAGE) under […] conditions. Proteins were transferred to nitrocellulose membranes and detected with antisera specific for GDF-6 or for the FLAG tag, secondary antibodies and detection system.

B1: active domain of GDF-6 fused to a FLAG tag (SEQ ID NO: 25), expressed in CHO cells (ligand)
chain: MDYKDDDDKENLYFQGTAFASRHGKRHGKKSRLRCSKKPLHVNFKELGWDDWIIAPLEYEAYHCEGVCDFPLRSHLEPTNHAIIQTLMNSMDPGSTPPSCCVPTKLTPISILYIDAGNNVVYKQYEDMVVESCGCR
notes: Non-reducing PAGE indicates a homodimer; also called active fragment of GDF-6; active fragment
For B1, the binding result is recorded as “binds”.
